Measurements taken from patent US20250376539A1 (KIRA PHARMACEUTICALS SUZHOU, published 2025).

T1: human complement C2 in normal human serum (human, UniProt P06681 21-752)
T1 sequence: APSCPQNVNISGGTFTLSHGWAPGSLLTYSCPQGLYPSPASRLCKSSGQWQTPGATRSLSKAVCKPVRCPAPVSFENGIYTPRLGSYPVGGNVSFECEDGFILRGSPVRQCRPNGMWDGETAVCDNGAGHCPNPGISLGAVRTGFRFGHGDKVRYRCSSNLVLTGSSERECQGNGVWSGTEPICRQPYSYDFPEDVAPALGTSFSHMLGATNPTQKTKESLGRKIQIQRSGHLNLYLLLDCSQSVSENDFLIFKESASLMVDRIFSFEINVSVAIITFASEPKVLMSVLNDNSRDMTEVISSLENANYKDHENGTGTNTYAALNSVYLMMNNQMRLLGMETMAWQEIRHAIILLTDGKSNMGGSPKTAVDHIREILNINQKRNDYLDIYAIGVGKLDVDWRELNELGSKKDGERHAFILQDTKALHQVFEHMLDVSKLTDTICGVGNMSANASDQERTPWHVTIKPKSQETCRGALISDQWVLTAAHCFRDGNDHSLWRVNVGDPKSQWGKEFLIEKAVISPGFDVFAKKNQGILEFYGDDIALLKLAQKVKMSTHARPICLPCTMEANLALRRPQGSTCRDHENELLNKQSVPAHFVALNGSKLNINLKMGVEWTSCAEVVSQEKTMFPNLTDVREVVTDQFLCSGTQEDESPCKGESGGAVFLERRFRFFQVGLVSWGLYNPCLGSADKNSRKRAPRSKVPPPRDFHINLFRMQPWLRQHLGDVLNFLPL

T2: recombinant cyno C2a, C-terminal 6His-tag, made in house (CHO cell expression) (cynomolgus monkey, UniProt P06681 244-752 (human entry))
T2 chain: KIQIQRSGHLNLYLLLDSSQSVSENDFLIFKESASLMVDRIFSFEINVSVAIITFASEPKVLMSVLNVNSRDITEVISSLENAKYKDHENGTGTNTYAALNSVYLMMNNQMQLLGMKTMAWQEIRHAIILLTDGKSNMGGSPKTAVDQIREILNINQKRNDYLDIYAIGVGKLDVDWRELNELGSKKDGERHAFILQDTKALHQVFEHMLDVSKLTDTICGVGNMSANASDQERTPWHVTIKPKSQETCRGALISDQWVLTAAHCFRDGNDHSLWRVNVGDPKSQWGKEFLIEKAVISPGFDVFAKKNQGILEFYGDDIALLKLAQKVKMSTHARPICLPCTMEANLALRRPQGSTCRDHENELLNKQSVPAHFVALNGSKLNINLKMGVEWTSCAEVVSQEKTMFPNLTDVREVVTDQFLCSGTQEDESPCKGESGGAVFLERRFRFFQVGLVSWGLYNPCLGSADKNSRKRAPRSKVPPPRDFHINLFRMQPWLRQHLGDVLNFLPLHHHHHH

T3: recombinant human C2a, C-terminal 6His-tag, made in house (CHO cell expression) (human, UniProt P06681 244-752)
T3 sequence: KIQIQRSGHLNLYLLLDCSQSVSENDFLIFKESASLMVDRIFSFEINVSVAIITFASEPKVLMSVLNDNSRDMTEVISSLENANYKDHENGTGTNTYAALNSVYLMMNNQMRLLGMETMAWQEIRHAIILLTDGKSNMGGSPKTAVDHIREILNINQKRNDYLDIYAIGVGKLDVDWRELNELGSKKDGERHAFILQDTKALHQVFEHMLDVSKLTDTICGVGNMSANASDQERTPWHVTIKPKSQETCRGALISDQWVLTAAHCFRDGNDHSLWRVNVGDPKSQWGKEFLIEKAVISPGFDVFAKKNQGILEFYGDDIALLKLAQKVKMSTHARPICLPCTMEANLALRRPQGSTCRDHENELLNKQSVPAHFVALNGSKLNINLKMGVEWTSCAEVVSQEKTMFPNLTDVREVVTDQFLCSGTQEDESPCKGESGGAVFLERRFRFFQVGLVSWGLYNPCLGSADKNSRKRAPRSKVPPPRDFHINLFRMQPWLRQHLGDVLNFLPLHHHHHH

T4: recombinant human complement C2 (NP_000054.2), C-terminal 6His-tag, made in house (CHO cell expression) (human, UniProt P06681 21-752)
T4 construct: a linker before the tag is not described; also called human C2; Human C2
T4 sequence: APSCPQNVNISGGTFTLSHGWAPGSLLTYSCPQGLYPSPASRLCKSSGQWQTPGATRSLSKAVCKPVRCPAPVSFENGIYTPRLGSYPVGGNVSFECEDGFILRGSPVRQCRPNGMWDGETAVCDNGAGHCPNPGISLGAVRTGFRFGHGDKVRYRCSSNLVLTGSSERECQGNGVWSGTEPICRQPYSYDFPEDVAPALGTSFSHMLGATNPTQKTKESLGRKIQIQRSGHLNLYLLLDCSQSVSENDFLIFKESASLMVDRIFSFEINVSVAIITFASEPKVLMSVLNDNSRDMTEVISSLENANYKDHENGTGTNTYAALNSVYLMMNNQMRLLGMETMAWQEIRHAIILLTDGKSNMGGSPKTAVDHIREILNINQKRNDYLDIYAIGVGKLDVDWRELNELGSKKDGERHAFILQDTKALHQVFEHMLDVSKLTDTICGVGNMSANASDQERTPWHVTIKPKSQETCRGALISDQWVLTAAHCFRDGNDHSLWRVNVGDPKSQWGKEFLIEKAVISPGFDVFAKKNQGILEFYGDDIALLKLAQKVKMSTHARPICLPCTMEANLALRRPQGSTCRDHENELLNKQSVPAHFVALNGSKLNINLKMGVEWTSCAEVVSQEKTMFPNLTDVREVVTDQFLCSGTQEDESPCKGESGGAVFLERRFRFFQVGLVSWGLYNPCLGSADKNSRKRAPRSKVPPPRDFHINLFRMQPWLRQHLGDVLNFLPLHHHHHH


How the values were obtained:
[1] = target: T1, human complement C2 in normal human …; experiment: cell-based or functional assay
[2] = target: T2, recombinant cyno C2a, C-terminal …; experiment: binding kinetics (BLI presumed)
[3] = target: T3, recombinant human C2a, C-terminal …; experiment: binding kinetics (BLI presumed)
[4] = target: T3, recombinant human C2a, C-terminal …; experiment: ELISA on human C2a, OD450nm against log Ab conc. (nmol/L)
[5] = target: T4, recombinant human complement C2 …; experiment: BLI (Gator); ratio of dissociation at pH 5.8 to pH 7.4
Method: The histidine mutant constructs in Table 4 were tested for their pH-dependent dissociation from human C2. Probe-immobilized anti-C2 antibodies were incubated with C2 at pH 7.4 for 600s, followed by a 600s dissociation period in K Buffer at pH 7.4 or pH 5.8. The data were processed and analyzed by the Gator evaluation software.

| IC50, inhibition of sheep RBC lysis, 5% serum [1] [nM] | Kd [2] [nM] | koff [2] [s⁻¹] | kon [2] [M⁻¹ s⁻¹] | Kd [3] [nM] | koff [3] [s⁻¹] | kon [3] [M⁻¹ s⁻¹] | binding result [4] | Fold dissociation pH 5.8/pH 7.4 [5] [fold] | Binder |
| --- | --- | --- | --- | --- | --- | --- | --- | --- | --- |
| 2.8 | 0.376 | 8.79e-05 | 234000 | 0.347 | 6.68e-05 | 193000 | – | – | anti-C2 antibody 69.44 (antibody, IgG4, V domains shown, Recombinant) VH: QVQLVQSGAEVKKPGASVKVSCKASGYSFTTYYMYWVRQAPGQGLEWMGIITPSGGSTTYAQKFQDRVTMTRDASTTTVYMELSSLRSEDTAVYYCARGYEGSYGFDHWGQGTLVTVSS VL: SYELTQPPSVSLSPGQTASITCSGDKLGNKYTCWYQQKPGQSPVLVIYQDNKRPSGIPERFSGSNSGNTATLTISGTQAMDEADYYCQTWDSSTAVFGGGTKLTVL |
| 2.9 | – | – | – | – | – | – | no binding (tested: 100 nmol/L) | 2.3 | anti-C2 antibody 3.2 (antibody, IgG4, V domains shown, Recombinant; also called WT; "WT" 3.2) VH: EVQLLESGGGLVQPGGSLRLSCAASGFTFRHYAMSWVRQAPGKGLEWVSLISGSGASTFYADSVKGRFTISRDNSENMLYLQMNSLRAEDTAVYYCAKDSLAVAGSEYFQHWGQGTLVTVSS VL: SYVLTQAPSVSVAPGQTARITCGGNYFGGKSVHWYQQRPGQAPVLVVYDDSDRPSGIPERFSGSKSGNTATLAISRVEAGDEAAYYCQVYDTSSDHWVFGGGTKLTVL |
